Experimental findings from patent US20070276125A1 are described below.

Experiment [1] deals with peroxidase-anti-peroxidase (PAP) immune complex (preformed immune complex of peroxidase and anti-peroxidase IgG). As to the kind of experiment: reverse ELISA, competition: soluble MBP pre-incubated with rabbit PAP, then MBP-coated plate; lower = more inhibition.
For experiment [2] the target is unchanged. In words: reverse ELISA, competition: soluble histone pre-incubated with rabbit PAP, then histone-coated plate; lower = more inhibition.
Experiment [3] addresses Histone (Sigma). As to the kind of experiment: reverse ELISA: binding of histones to IgG PAP immune complexes, no inhibitor.
Experiment [4] concerns the target FcγIII. In words: reverse ELISA: PAP on FcγIII-coated plate, no inhibitor.
For experiment [5], the target named is myelin basic protein (MBP, Sigma). In words: reverse ELISA: binding of MBP to IgG PAP immune complexes, no inhibitor.
The target in experiment [6] is FcγIIa. As to the kind of experiment: reverse ELISA: rabbit PAP on FcγIIa-coated plate, no inhibitor.
FcγIIa, sequence (P12318 34-217): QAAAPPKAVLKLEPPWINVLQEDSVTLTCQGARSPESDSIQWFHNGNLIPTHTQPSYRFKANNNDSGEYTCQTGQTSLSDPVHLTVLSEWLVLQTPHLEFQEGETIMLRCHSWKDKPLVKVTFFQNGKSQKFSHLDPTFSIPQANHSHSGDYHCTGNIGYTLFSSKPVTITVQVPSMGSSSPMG
Experiment [7] addresses myelin basic protein (MBP, Sigma). As to the kind of experiment: reverse ELISA: rabbit PAP on MBP-coated plate, no inhibitor.
Experiment [8] addresses FcγIII. In words: reverse ELISA: rabbit PAP on FcγIII-coated plate, no inhibitor.
Experiment [9] has as its target human C1q (human) (UniProt P02745). In words: reverse ELISA: rabbit PAP on C1q-coated plate, no inhibitor.
In experiment [10] the target is whole human IgG4. In words: reverse ELISA: immune complexes on IgG4-coated plate, no inhibitor.
For experiment [11], the target named is FcγIIa. In words: reverse ELISA: PAP on FcγIIa-coated plate, no inhibitor.
Experiment [12] addresses FcγIIb. In words: reverse ELISA: PAP on FcγIIb-coated plate, no inhibitor.
For experiment [13], the target named is FcγIIb. As to the kind of experiment: reverse ELISA: rabbit PAP on FcγIIb-coated plate, no inhibitor.
FcγIIb, sequence (P31994 43-217): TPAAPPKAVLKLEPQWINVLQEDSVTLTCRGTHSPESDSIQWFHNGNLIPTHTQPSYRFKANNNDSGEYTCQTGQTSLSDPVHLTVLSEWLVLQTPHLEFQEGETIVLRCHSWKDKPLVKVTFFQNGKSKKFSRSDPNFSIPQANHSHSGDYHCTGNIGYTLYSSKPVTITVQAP
Experiment [14] has as its target Histone (Sigma). In words: reverse ELISA: rabbit PAP on histone-coated plate, no inhibitor.
Experiment [15] deals with human C1q (human) (UniProt P02745). As to the kind of experiment: reverse ELISA: PAP on C1q-coated plate, no inhibitor.
human C1q (human), sequence (P02745 23-245 limits assumed, chain 1 of 3): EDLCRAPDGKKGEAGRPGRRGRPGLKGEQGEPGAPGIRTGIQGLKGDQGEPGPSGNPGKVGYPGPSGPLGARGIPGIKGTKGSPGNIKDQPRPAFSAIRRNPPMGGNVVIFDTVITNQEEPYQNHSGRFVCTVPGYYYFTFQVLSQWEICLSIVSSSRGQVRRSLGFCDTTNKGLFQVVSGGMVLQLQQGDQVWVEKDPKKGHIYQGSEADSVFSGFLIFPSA
human C1q (human), sequence (P02746 28-253 limits assumed, chain 2 of 3, further chain): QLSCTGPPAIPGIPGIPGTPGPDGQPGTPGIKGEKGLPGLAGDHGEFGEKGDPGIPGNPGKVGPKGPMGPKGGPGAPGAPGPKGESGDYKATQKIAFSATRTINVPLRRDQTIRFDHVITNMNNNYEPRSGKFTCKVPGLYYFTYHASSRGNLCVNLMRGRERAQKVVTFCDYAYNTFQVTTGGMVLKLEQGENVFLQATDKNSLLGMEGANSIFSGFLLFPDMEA
human C1q (human), sequence (P02747 29-245 limits assumed, chain 3 of 3, further chain): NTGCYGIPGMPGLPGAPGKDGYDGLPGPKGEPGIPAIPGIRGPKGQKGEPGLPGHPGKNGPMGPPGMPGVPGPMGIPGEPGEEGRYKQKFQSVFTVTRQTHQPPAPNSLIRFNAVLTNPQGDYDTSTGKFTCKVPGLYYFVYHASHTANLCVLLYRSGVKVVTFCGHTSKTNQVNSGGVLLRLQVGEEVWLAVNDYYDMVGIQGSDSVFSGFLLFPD
Experiment [16] concerns the target peroxidase-anti-peroxidase (PAP) immune complex (preformed immune complex of peroxidase and anti-peroxidase IgG). As to the kind of experiment: reverse ELISA, competition: pre-incubated with rabbit PAP, then histone-coated plate (competitor: histone); lower = more inhibition.
For experiment [17] the target is unchanged. As to the kind of experiment: reverse ELISA, competition: pre-incubated with PAP, then RF-coated plate (competitor: RF); lower = more inhibition.
For experiment [18] the target is unchanged. As to the kind of experiment: reverse ELISA, competition: pre-incubated with PAP, then FcγIIb-coated plate (competitor: FcγIIb); lower = more inhibition.
The target is the same in experiment [19]. As to the kind of experiment: reverse ELISA, competition: pre-incubated with PAP, then C1q-coated plate (competitor: C1q); OD = PAP bound, lower = more inhibition.
Experiment [20] has the same target. As to the kind of experiment: reverse ELISA, competition: pre-incubated with rabbit PAP, then MBP-coated plate (competitor: MBP); lower = more inhibition.
Experiment [21] has the same target. In words: reverse ELISA, competition: pre-incubated with PAP, then FcγIIa-coated plate (competitor: FcγIIa); lower = more inhibition.
Experiment [22] deals with human monomeric IgG (Research Diagnostics). In words: RF test, competition: peptide pre-incubated with human monomeric IgG, washed, then 200 I.U. RF (competitor); OD = RF bound, lower = more inhibition.
Experiment [23] deals with peroxidase-anti-peroxidase (PAP) immune complex (preformed immune complex of peroxidase and anti-peroxidase IgG). As to the kind of experiment: reverse ELISA, competition: pre-incubated with PAP, then FcγIII-coated plate (competitor: FcγIII); lower = more inhibition.
Experiment [24] shares this target. In words: reverse ELISA, competition: peptide with immune complexes, IgG4-coated plate (competitor: IgG4); lower = more inhibition.
Experiment [25] shares this target. In words: reverse ELISA, competition: pre-incubated with rabbit PAP, then FcγIII-coated plate (competitor: FcγIII); lower = more inhibition.
Experiment [26] shares this target. As to the kind of experiment: reverse ELISA, competition: pre-incubated with rabbit PAP, then RF-coated plate (competitor: RF); lower = more inhibition.
Experiment [27] concerns the target human monomeric IgG (Research Diagnostics). In words: RF test, competition: peptide pre-incubated 1 hour with human monomeric IgG, washed, then 200 I.U. RF (competitor); OD = RF bound, lower = more inhibition.
Experiment [28] has as its target peroxidase-anti-peroxidase (PAP) immune complex (preformed immune complex of peroxidase and anti-peroxidase IgG). In words: reverse ELISA, competition: pre-incubated with rabbit PAP, then C1q-coated plate (competitor: C1q); lower = more inhibition.
For experiment [29] the target is unchanged. As to the kind of experiment: reverse ELISA, competition: pre-incubated with rabbit PAP, then FcγIIa-coated plate (competitor: FcγIIa); lower = more inhibition.
Experiment [30] has the same target. As to the kind of experiment: reverse ELISA, competition: pre-incubated with rabbit PAP, then FcγIIb-coated plate (competitor: FcγIIb); lower = more inhibition.

Positions of bridges follow the written chain, without caps; N, C: chain ends. No end group written: not given here.

In [1], myelin basic protein (MBP, Sigma) came in with an OD 405 nm of 0.139 OD.
Histone (Sigma) returned an OD 405 nm in experiment [2] of 0.057 OD.
As to “peroxidase-anti-peroxidase (PAP) immune complex (preformed immune complex of peroxidase and anti-peroxidase IgG)”, the OD 405 nm was determined as 2.11 OD in experiment [3]; 2.34 OD in [5]; 1.6 OD in experiment [6]; 1.03 OD in [7]; 1.59 OD in experiment [8]; 2.35 OD in experiment [9]. In addition, the OD 405 nm in experiment [10] was 0.716 OD; in experiment [13], 1.39 OD; in [14], 1.27 OD; in [15], 0.467 OD. Further, the OD 450 nm in [4], in experiment [11] and in experiment [12] was 3.6 OD throughout.
For the molecule RCARHLGELVWCT (disulfide 2-12 (inferred)) [… peptide (SEQ ID NO:5)], the OD 405 nm in experiment [16] stood at 0.359 OD; in [17], 0.152 OD; in experiment [19], 0.247 OD; in experiment [20], 0.569 OD; in experiment [22], 1.31 OD; in experiment [24] it was 0.191 OD. Moreover, the OD 450 nm in experiment [18] amounted to 3.28 OD; in experiment [21], 3.4 OD; in experiment [23], 3.5 OD.
Consider DCARHLGELVWCT (disulfide 2-12 (inferred)) [… peptide (SEQ ID NO:4)], for which the OD 405 nm in [16] was 0.363 OD; in experiment [17] it was 0.109 OD; in experiment [19], 0.193 OD; in experiment [20], 0.473 OD; in [22], 1.23 OD; in experiment [24] it was 0.096 OD. Moreover, the OD 450 nm in [18] is 1.95 OD; in experiment [21], 2.54 OD; in experiment [23] it was 2.53 OD.
APPDCARHLGELVWCT (cyclized by a disulfide bond between the two cysteine residues) [… peptide (printed in Table 8 with SEQ ID NO:14)] gave an OD 405 nm in experiment [24] of 0.107 OD.
PCARHLGELVWCT (disulfide 2-12 (inferred)) [… peptide (SEQ ID NO:41)]: the OD 405 nm in experiment [16] was 0.444 OD; in experiment [17], 0.106 OD; in [19] it was 0.205 OD; in [20], 0.489 OD; in experiment [22], 1.32 OD; in experiment [24], 0.129 OD. For the same molecule, the figures for the OD 450 nm in [18], in experiment [21] and in experiment [23] were 1.21 OD, 1.15 OD and 1.6 OD, respectively.
As to DCAAHLGELAACT (cyclized by a disulfide bond between the two cysteine residues) [… peptide (SEQ ID NO:40)], the OD 450 nm in experiment [18] was determined as 2.26 OD; in [21], 2.43 OD; in experiment [23], 2.41 OD. Moreover, the values for the OD 405 nm in [19] and in [22] were 0.458 OD and 1.42 OD, respectively.
DCAFHLGELVWCT (cyclized by a disulfide bond between the two cysteine residues) [… peptide (SEQ ID NO:3)]: the OD 405 nm in experiment [25] came out at 0.81 OD; in experiment [26], 0.267 OD; in experiment [27] it was 0.962 OD; in experiment [28], 0.859 OD; in experiment [29], 0.66 OD; in experiment [30], 0.51 OD.
On to DCAWHLGELAACT (cyclized by a disulfide bond between the two cysteine residues) [… peptide (SEQ ID NO:42)], for which the OD 405 nm in experiment [16] was found to be 0.729 OD; in experiment [17] it was 0.622 OD; in [20], 0.706 OD; in experiment [22], 1.4 OD; in experiment [24], 0.557 OD. Also, the OD 450 nm in experiment [18] turned out to be 1.07 OD; in experiment [21], 1.48 OD; in [23], 1.34 OD.
